± gives the uncertainty stated by the source.
Test: amyloid nucleation score (Sup35N fusion, yeast selection) (log enrichment); library NNK2; higher = more nucleation; inactive = no reads after selection
Summary of the method: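 Random libraries were run with three technical output replicates. In each, psi-negative yeast expressing Sup35N fused to peptides of 20 random codons were induced 24 hours with 100 μM copper sulfate and grown 7 days at 30°C on medium lacking adenine and uracil, and input and output plasmid inserts were Illumina-sequenced. The nucleation score is the DiMSum log enrichment of output over input reads, centred on the mode score of non-aggregating sequences, and sequences under 100 input reads were excluded.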

| Substance | amyloid nucleation score |
| --- | --- |
| YRARKASLTDVSSSVKVNMS | -0.026 ± 0.63 |
| CVYWWASGE | inactive |
| SNGINN | inactive |
| GLRHGLCRSLLY | -0.642 ± 1.1 |
| YSVFNTSNFSALDPRFRRLF | 0.201 ± 0.8 |
| CMESRCFEL | 0.438 ± 0.56 |
| DVVKNLYSSGLGLSTCMLYI | -0.95 ± 0.55 |
| YRILVNFAVVSMVRINRSFW | -1.48 ± 0.78 |
| NLCGCAMVCWVPF | -0.217 ± 0.54 |
| SVFCCLYLYSG | 9.035 ± 0.023 |
| FLVVGGT | -0.112 ± 0.21 |
| DTALFYSNNVMTSKVGAQKS | -0.003 ± 1.1 |
| LARSLSVNQYKPNLLFVGCD | -1.52 ± 1.1 |
| IIAEFDSGWSEAFDSCLGMS | -0.114 ± 0.54 |
| YRPRDCISRVTYMRTVIVIL | -0.121 ± 1.1 |
| SFIVQHE | 0.16 ± 0.55 |
| YTAIVRFWWVTQSVQFKNRD | -0.143 ± 0.8 |
| RVLADVKRYRECQTRCRDAW | 1.04 ± 0.34 |
| NRNLDGFLPWNVHEAVGL | -0.003 ± 0.42 |
| FFVMGRSGYSLVALKREKSI | inactive |
| IKISYTLMASEAVNTFS | -1.22 ± 1.1 |
| RVSIVCWIFVDSREHFFSVK | -0.818 ± 0.55 |
| GGREARMGRKKGERVYRVRF | 0.657 ± 0.56 |
| FCGFNDPGRD | inactive |
| GVWYFANFFVVMRAVGCDVG | 0.484 ± 0.36 |
| MCSPSQEVITYHSDFWNGQK | 1.18 ± 0.68 |

| Substance | amyloid nucleation score |
| --- | --- |
| ESLGEVKGYTSDPMVLVCFE | -0.167 ± 0.23 |
| LDTHRPPYQDRVWLTRSANT | 1.79 ± 0.24 |
| HSYLKLVGLCKNSKRFNHNF | inactive |
| HLGKASYREFSFFKGLGY | inactive |
| CTSYTEDFLWCFHNVTWKVR | 0.105 ± 0.8 |
| SSSEFDPSSGSCLYT | -0.847 ± 0.34 |
| TFRIERSVGWYCNRASYSCK | 1.02 ± 0.21 |
| RRIINWPNSGIGIPRSKSMF | inactive |
| ESKIACCDMMLW | 5.89 ± 0.062 |
| REVWCRISLKFFYMGDLFVR | 0.008 ± 0.8 |
| VNKQNPGVYFLHRGFFVLSR | -1.57 ± 0.78 |
| LNSQSLVAYMRAFVKDSPCR | 0.007 ± 1.1 |
| GCYHVMVRNNKTGVLVMRSA | 0.545 ± 0.57 |
| DFYLFQG | 0.228 ± 0.56 |
| LSGLIGG | -0.135 ± 0.55 |
| MKGALWYSDKAT | 0.102 ± 1.1 |
| HLNFRSGILAISFIFDLSNH | inactive |
| GFKAMRCLWSGVARSIVRDS | -0.242 ± 0.49 |
| SKNLE | -2.09 ± 0.48 |
| YTRSYGPFPSHLVNLARNLS | -0.905 ± 0.32 |
| ASRPWMMYPHESARRSR | 1.6 ± 0.22 |
| PSVFEGRK | -0.843 ± 0.63 |
| VDIASLKLTSNH | -0.213 ± 0.65 |
| SENIRDFVLKWCYLDTHDRL | -0.261 ± 1.1 |
| VMILGVYKNFMLIFELVPVY | -1.01 ± 0.76 |
| VIMSGHSNRHWRSGLERMAG | 0.823 ± 0.27 |

| Substance | amyloid nucleation score |
| --- | --- |
| ATKRGVHSQLCDCLRCMEFS | 0.386 ± 0.32 |
| FSKSVVGSPERKHVDT | 0.948 ± 0.34 |
| LFALLK | -0.005 ± 0.54 |
| WRCGVVFRDEYCYRGNRTFK | -0.675 ± 0.26 |
| LTTKKLRSWV | -0.895 ± 1.1 |
| YKFSPIHNSRCLNSLHWPKA | 0.439 ± 0.74 |
| CVFLHSALSQYRVIIVTWYP | -0.237 ± 0.63 |
| QRLYPFYCIGYYITMYVVHC | 2.45 ± 0.13 |
| FVHIIESELYSEQTRESHLL | -0.586 ± 0.29 |
| VTRKVLGYCRVW | 0.472 ± 0.8 |
| LISTELGPTSFYLHKSLSSR | -1.02 ± 0.62 |
| RLVTGGVWMDSDDSYRVIET | -0.032 ± 1.1 |
| VFSSYYRSKEFTCIVLLGL | -0.026 ± 0.33 |
| VFASMFILFYV | 3.46 ± 0.07 |
| FWFMVCLIAG | -0.223 ± 0.48 |
| LMYGKEWSMEQIVGTSTFGY | -1.36 ± 0.48 |
| ASVAGSV | 0.781 ± 0.27 |
| KARRPRIWDMDLLQLWANLP | 1.12 ± 0.66 |
| FFMNNALFRGWG | 2.97 ± 0.15 |
| GARMHCGFCMGSWWYVFWVR | 1.32 ± 0.37 |
| ILLYRNAYWYPGKSSICLTS | -1.06 ± 0.49 |
| KTRHKVLRKDL | -1.64 ± 0.54 |
| VIILRTPYVCSHYWSDPTVL | -0.138 ± 0.56 |
| LYGRYANERWRLNSLDEKVT | 0.881 ± 0.45 |
| TFAPDLS | -0.053 ± 0.56 |
| FIRQKGYTVFLVCGNYVWMT | 5.979 ± 0.056 |

| Substance | amyloid nucleation score |
| --- | --- |
| AFRSSSPSRVHELRQMKELV | 1.14 ± 0.3 |
| IKLYCELCYFSNFWKIFTLR | inactive |
| FLGFI | -1.94 ± 1.1 |
| YSLYEYFKSHLRKACVMPGW | inactive |
| SLKSAFQMKVISYLVEWLVS | -0.6 ± 0.36 |
| YLWDRSATRS | 0.605 ± 0.29 |
| VEIFNLMSGTIIPGLSKLMK | -2.02 ± 0.45 |
| TLYRPMTIMFMRVHHEVRWF | 6.195 ± 0.04 |
| GVCLSGACAGISGGADYSGR | 0.332 ± 0.22 |
| YSPSRVS | -0.493 ± 0.48 |
| IVWSNMTIQQSTSSVY | -0.25 ± 0.25 |
| LRFVVMVHLE | -0.072 ± 0.79 |
| SNCSPLATMDCSPDFMSTF | -0.121 ± 1.1 |
| FIFVLI | 3.08 ± 0.11 |
| INSSRSFVYDFNTWNFQDVR | -0.089 ± 0.79 |
| SRRRLVPSLLTRIISGVRGR | -0.877 ± 0.55 |
| WVAFANFVHGLMTLGHWGSR | 1.28 ± 0.27 |
| CFQYTQTNVMRFSYGIGHRE | 2.12 ± 0.18 |
| FACLYKTMQQLMGIKMCVKA | 0.277 ± 0.4 |
| RMGKRNFEQNSANQWVPMNP | 0.691 ± 0.6 |
| CMPPRLWMW | -0.137 ± 1.1 |
| VAWMFMASFRSLSMMVSISR | 0.01 ± 0.37 |
| NNSYTGPVSCNHVAGCGTGH | -0.387 ± 1.1 |
| LPHCL | 1.36 ± 0.24 |
| RDSTVFKIYCWPYNN | 6.493 ± 0.05 |
| GWIVSLFVV | 0.769 ± 0.46 |

| Substance | amyloid nucleation score |
| --- | --- |
| YVDWVNRTFQWFTGDVDDPV | -0.107 ± 0.39 |
| IFVYY | -0.162 ± 0.4 |
| NSFYRCYVRCIVSVRFLCCH | 5.008 ± 0.035 |
| MDFVNTIATCNKKREVRFVI | -1.1 ± 0.36 |
| NWSHELQIQLCAMAYREWSE | 5.777 ± 0.038 |
| VRVGCTWS | 0.618 ± 0.34 |
| LSKMWPPIHTTLIPLTDAER | 4.84 ± 0.06 |
| NNSQEFSSYTWMNYLLIVKW | -1.02 ± 1 |
| KCIIRTNKFFAFHVCKLTVN | 0.498 ± 0.3 |
| KVGNGRDCIMLTVSCA | 0.748 ± 0.23 |
| AFNERAYYVGGLTADME | 0.753 ± 0.43 |
| DSLPSRNSNIGWIQWILWGI | -0.121 ± 1.1 |
| RALVRLHSDYMLWRFMVADS | 0.399 ± 0.42 |
| SWWTMWLLTRLRNSSSWGMT | 0.011 ± 0.23 |
| FVEMLYLGDVGDCHILQCVY | inactive |
| LCWCWKSWHNARRWTSWRMF | 0.13 ± 0.56 |
| FFFVPSFDTLEHTLRVGLLR | inactive |
| LKARIACADYIRSGIILLCS | 2.2 ± 0.08 |
| WLTLGVYELRWMRSPNTGCL | 1.8 ± 0.23 |
| FNSCDAWYCMNSQVSRTTYL | -0.624 ± 0.41 |
| LWTKFDSPSRVCHKSQLSKA | 0.192 ± 0.26 |
| STVTELLRYPAHNFGEVHIL | 4.702 ± 0.047 |
| LNVDP | inactive |

From the supplement of paper PMC12042874
